# From PMC3674325
# Legend:
# [1] = molecular target: T1, APOBEC3A (A3A) wild-type (Homo sapiens, UniProt P31941 1-199); test: EMSA
# [2] = molecular target: T1, APOBEC3A (A3A) wild-type; test: NMR titration
# [3] = molecular target: APOBEC3A E72Q (Homo sapiens, UniProt P31941 1-199, E72Q); test: NMR titration
# [4] = molecular target: T1, APOBEC3A (A3A) wild-type; test: NMR titration; remark: listed apart in the source
# T1 sequence (P31941 whole entry): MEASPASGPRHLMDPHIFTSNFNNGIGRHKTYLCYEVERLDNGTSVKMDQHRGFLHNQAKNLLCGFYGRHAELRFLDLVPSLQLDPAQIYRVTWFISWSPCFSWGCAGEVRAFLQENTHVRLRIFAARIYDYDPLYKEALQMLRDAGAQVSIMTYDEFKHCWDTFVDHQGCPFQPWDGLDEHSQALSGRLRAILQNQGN
# Sequence of APOBEC3A E72Q (P31941 whole entry E72Q): as the sequence (P31941 whole entry) above, with E72Q counted along it
binder,measurement,setting,value
ATTATTATTATTATTATTATTTCATTTATTTATTTATTTA (ssDNA) [40-nt ssDNA JL895],Kd,[1],~80 µM
AUUAUUAUUAUUAUUAUUAUUUCAUUUAUUUAUUUAUUUA (ssRNA) [40-nt ssRNA JL931],apparent K (half saturation),[1],~40 µM
"ATTTUATTT (ssDNA, dU at position 5) [ATTTUATTT (9-nt product)]",Kd,[2],58 ± 8 µM
"ATTATTTUATTTATT (ssDNA, dU at position 8) [ATTATTTUATTTATT (15-nt product)]",Kd,[2],57 ± 11 µM
ATTATTTCATTTATT (ssDNA) [ATTATTTCATTTATT (15-nt substrate)],Kd,[3],55 ± 11 µM
"TCATTT (ssDNA, C at position 2 converted to dU during titration) [TCATTT (6-nt; value is for dU product)]",Kd,[4],194 ± 18 µM
"AAACCCAAA (ssDNA, C deaminated to dU during titration) [AAACCCAAA (value is for dU-containing product)]",Kd,[4],91 ± 15 µM
"AAACCAAAA (ssDNA, C deaminated to dU during titration) [AAACCAAAA (value is for dU-containing product)]",Kd,[4],94 ± 11 µM
"AAACAAAAA (ssDNA, C deaminated to dU during titration) [AAACAAAAA (value is for dU-containing product)]",Kd,[4],161 ± 19 µM
